Data: the domain aggregation screens of Martell et al. (2025)

test: soluble fraction after stress (log2 fold change); higher = more stays soluble; pooled small domains, quantitative proteomics; details: stress: 50 degC
Procedure, shortened: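 Pooled custom libraries of small protein domains were measured in a high-throughput format, with quantitative proteomics as the read-out. Each library was stressed at 50°C. Aggregation propensity is given as the base-two logarithm of the fold change in how much of each protein stays soluble after the stress. Higher values mean a larger share of the protein remains in solution.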

Compared with “HMSGAKLLAPVTGTLLRYTVAEGTKVSEGQTVIMLESMKMELEINAHKAGVIHFTAAAGAQVAEGDSLAEI”, “HMGDLKALMPGKVTQVLVSGGQKVKVGEPVLLMESMKMEQTIVATKDGDISEILVSEGDTVEVGKIMIKI” is higher in “soluble fraction (log2)” value: -0.52 for the first, 0.163 for the second.

“HMEALNIEQKKVEIINVLLEKGKGKGRLSYKEISDQIDTVELDKDQMDELYETLMTNGIEIV” and “HMGEKFTFGQIAKAKAYAKTYANDMTSAVKNIEAIATGLSKHPEVADTLKKANENQELNRITKLAG” are within 0.2 log units of each other in “soluble fraction (log2)” value: 0.114 for the first, 0.149 for the second.

“HMHGERVVTAGQTVRVVFTSNGLQVSSEGKALAAGAVGDDIQVRAASGKVIRGTVTGPGVVQV” and “HMNVRRSRTHEKVTTYQGYDIFINKEPNQRGMFTSAPMRGDNEYSNLRGEGKSKQDAVNMTKEKIDEIAA” are within 0.2 log units of each other in “soluble fraction (log2)” value: 0.231 for the first, 0.403 for the second.

Going from “HMAESSPYTVRPGDTLWKILAQTQNARYNDFPYLYRKFRELNPNITDLNHIVSGQKIIVPHIPG” to “HMLVMTDNVIKAINDLLNYEAAAGIKKKQRYTAYQIYKELSEQGVYHGSRRRMEEVVSKLRVERNQI”, the “soluble fraction (log2)” value falls from 0.0168 to -2.78.

Compared with “HMLGWEDVIQFEEVKGYGQHIWRDGNHLYYVTEEGGIAPQRVVYELPNELFALLESGERTQLEILSKLQ”, “HMENDPYEILGIARSASDDEIKAKYRALTRENHPDILMAKGVPQEFIDLANEKMAVINAAYDKIEKER” is higher in “soluble fraction (log2)” value: -3.11 for the first, 0.292 for the second.

“HMGLLVPELTAEENVSLAAMIAGVPRQQARSISADLLNRLGLGQMLDRRMGEMSGGQAQRVAIAPIYGKF” and “HMYYHQIIGLDVVDENGNTLGKIKEILSPGANDVWVVKRKQKNDLLLPVIDDVIKDVDLAAGKVHVELLEG” are within 0.2 log units of each other in “soluble fraction (log2)” value: -0.274 for the first, -0.0975 for the second.

Compared with “HMENPLETYYSQWVSAIKREHPEASFVKDTDGKYYVEGLTKNRLAVIYENPHLVRLVNATTNLHVE”, “HMDPPYKDKNLHELLLKINNLNILKKDSVIILHRHKKQKEIFPSNFKIIEQKQYGISKIIFLTVL” is higher in “soluble fraction (log2)” value: -0.305 for the first, 0.00254 for the second.

Compared with “HMAMMTKQRLIQLIHIARNDLQMDEDTYRQMLQGLTGKASTKGMDTPQLNRVLESMKKKGFRIK”, “HMKTGIGIVEANGGLRLRSQASTSSDVLSTAHNGDNVVVIRQVGNWYLVNYNLKIGYMHSDYITFKE” is lower in “soluble fraction (log2)” value: -0.447 for the first, -4.82 for the second.

Compared with “HMNARSTSYSDFIARVDKDEVASVRLDGETVTYQAADGTTYTTVKPESDPIAERLIAKGIEVNVVRQ”, “HMEGIAEILPASVRQKYGLIGLYDALRGLHFPGNMEEIKAARQRLAFEDTLMFSLTLSMMQYS” is higher in “soluble fraction (log2)” value: -0.49 for the first, -0.0198 for the second.

Compared with “HMLPDVSITGHIFIRSGSRLNRIFVGESTYHVGDMLDGKWLIESINSDSLELRSGTQTTELPL”, “HMPLTAASLQTYLRGVDYPASKQDLIAHARKSDAPEDAITVLEQYSEQTYRSAADVSAEFGS” is higher in “soluble fraction (log2)” value: -2.58 for the first, 0.178 for the second.

Going from “HMDRVMPVPEALIGMRFDIAVSRMLGVSRSQAAAYIDRGQVSIAGRGSQRSAQKSEKLVQGDSIEVAIA” to “HMQDREIHIHAGREVLEKELSRLSLHLKNTNLQEYAARFNVKTAEDILAGIGAGDIRPAHVVNLIADKL”, the “soluble fraction (log2)” value rises from -0.318 to 0.0629.

Compared with “HMTMKQVFIETDANVNQKIMLNEKEAHHLFDVLRTSDKETIRVVTNTSQVFLARVQQKPYIYLFDKMTVE”, “HMEPVDYEALRKELMQKVMGLFTQSRDVGIQILSSFGAKKLSDVPDDKLVAFAASVDKALAG” is higher in “soluble fraction (log2)” value: -1.41 for the first, -0.0404 for the second.

“HMHTPSGALLSAIEKEWGSFDNFKKEFTTAATSLFGSGWVWLAKDKKGKLYILSENNAGNPITKGYTPILG” and “HMETQVKVPNVVGMTQSKAIAKLKESKLDYEVQEQKHDGDKGKVVDQSEAEGTYVDRGTKVIIYVSTGE” are within 0.2 log units of each other in “soluble fraction (log2)” value: -0.262 for the first, -0.088 for the second.

“HMETGNEDYRVGKELAYDGNYKAATIYLMKSIKDDPNNPDAFNMLGFSHRKLGNNDEAYIYYNKALEL” and “HMTARPTLEKLKYMIHEAGITENSLKVIVATKGHYGLDADISTYSDDFITRWIIPNWTKIVQTISNNK” are within 0.2 log units of each other in “soluble fraction (log2)” value: -0.387 for the first, -0.348 for the second.

“HMSNNLAYSQFLDRVKNKEIRKVEIRGQSIVGYTSNNETFKTYAPLNDPKMYDELLTNDVQVQVDPP” and “HMGEQVFSRKDLAINGNDLKAVFGWPPGPKYREALDQLFHWVLEDPARNRRETLLAYLHSLYD” are within 0.2 log units of each other in “soluble fraction (log2)” value: 0.0519 for the first, -0.0199 for the second.

First: HMGNLEENFRLKAGTEDGAWEFIRYHLGKLPVVNESNGTAIVNAERQAFLLFDRMVAFHIQRGVMVPLSAP
Second: HMIKSMTGYGSAKGTVEGIEVSVELKSVNNKFLDTSIRLPRSFLFAEETIKQAVSSHISRGKVDVFVSVDS
The “soluble fraction (log2)” value of the first is lower: 0.0891 for the first, ≥ 0.62 for the second.

Going from “HMALMLGGLIVYLNTTAPRDDIDLIELSKDTKAMAAFGNKLASPDYNGKQFALDWHELSRDEIMSKYFS” to “HMYEHLKALRESLGMTQAEFGESVGVAKSTYNNYEIGARDPKSDFWIAVAQRYGVTIDYLMGFSDDPKKT”, the “soluble fraction (log2)” value falls from -0.987 to -1.65.

“HMLPSELLAQQRIVVQPGHNLWRIARATYGRGARYTVIYQANREQIADPNRIFPGQVFALPAA” and “HMAKRDEIEAELPRFVATITQELAASRDVLSMIEHYKQNSGPVFSAELDVLTADMRSGSYEAALTRFEARF” are within 0.2 log units of each other in “soluble fraction (log2)” value: -0.121 for the first, 0.0338 for the second.

“HMVMPTGRVRYYDAEKGFGFLSKDSGGDDVYVRSSALPAGVTSLKRGQKVEFGIIDGKRGEQALSVHLL” and “HMDFITPYEIEQGQYEGAELYEDGKFEEAFSLSSIAAQRGMKTAQYLLGIMFLKGEYVDQSLAIGMAW” are within 0.2 log units of each other in “soluble fraction (log2)” value: -0.0933 for the first, -0.272 for the second.

First: HMKEQLITVYVSGAVARPGLYELPAGIRAQEAVEAAGGFTEAANHEKVNLAKKLKDGSQVNVPALK
Second: HMSAEVSEIEIQRIISYYRNQNGVPDKYNEIFDRIAAQYTDEQLKVISNFLPSDVKQYLSFNNEKYKSLG
The “soluble fraction (log2)” value of the first is higher: -0.0032 for the first, -0.295 for the second.

First: HMHSEISGGSKDPFRFMPHLGVEDIHAETDRLSGSGVEFIREPDQESWGGWVATFKDPDGNILQLLQL
Second: HMKEYRKEGHLYFVTEDRNNEIYLWDFTDKPKHEFKEIITSVELQKVAKEGAMLQYKNGKYELYS
The “soluble fraction (log2)” value of the first is higher: 0.25 for the first, -0.171 for the second.

Going from “HMTVGEAHLEEVYLKVLKQVEEQGTALIRTTDVETGRPAAGIRRRYMRGTLPDEWVAKFEALPGWTWAPG” to “HMYLSNPTYRGDSLVDALTQIGVDASFASRRDLARKNGIENYTGSAKQNLELLQLLREGRLR”, the “soluble fraction (log2)” value rises from -0.879 to 0.374.

“HMSEEGTIPDVSGQDEASAQKALENAGFTNIKSEAVYSEEEQGTVIDTNPTAGTKVSKDTEITMQVSKGSE” and “HMDFIEYIISEESKGLRADQAISMENDKFSRSLIQKWIKKGRVLVNGRKIKPKDIVNLNDKITINPEESIN” are within 0.2 log units of each other in “soluble fraction (log2)” value: -0.34 for the first, -0.143 for the second.

Going from “HMTKGVQMFAEQLKRTRQSRHYSQAEIASKLGVTQQAIAKWETGVSTPSPTSISKLSDILGISTDVLLKGA” to “HMLRVVSTRQAFDIVRGWADAHPQDPEHNKTLDELEELAKKEVWDDWSRTNEIAERLNALLVSIGANVRTA”, the “soluble fraction (log2)” value falls from 0.0763 to -0.742.

“HMPEVYSFEVNEGAAGKRLDIFLSGEIEGLTRSFIQKLISEGMATVNQEPPRASYRVKTRDLVELQIPDPE” and “HMDVLSPEEWIEFRTAYNNNRYISQYGSKGATIEDDYATRLAMIGGKESYYFLNDPRWTEPGYGNLK” are within 0.2 log units of each other in “soluble fraction (log2)” value: -0.488 for the first, -0.437 for the second.

Going from “HMRQSIHTALQLLTPREEEVLNLLVSGKSNKQVAEHFSLSSKTIERHRSSVMRKLDASSFAQLVRIAALR” to “HMTEYFTIESQEGERIDRYLSEELEDKSRSYIQKLIRDGHVLVDGKTVKAGYRLVAGDNIAITLPEI”, the “soluble fraction (log2)” value rises from -3.51 to -0.0879.

First: HMEFQEQLYRLRKQAGLSQEELSHIIGVSRQAVQKWEAGSARPDLDNLIALASHFKLSLDQLVGLT
Second: HMTDLALHIGKTLRELRQRRGWSLDKTAQATGVSKAMLGQIERGESSPTVVTLWRISSGLQASFSEFLPP
The “soluble fraction (log2)” value of the first is higher: -0.555 for the first, -1.61 for the second.

“HMADYSGYLGKKGKVIAPLRPAGTALIDGERVDVVSFGDYIDKDSEIEVVKIEGSKLLVKKY” and “HMSSEITYDKFIEMVDKDQVKEVTLQSGVLTVVPKIQKSYYQNASYKVNQMEDVDALTKRLEGTGIVFHY” are within 0.2 log units of each other in “soluble fraction (log2)” value: 0.141 for the first, -0.0487 for the second.

First: HMVTNELFGTRLRAFRKEKGLTIEQLAERVGLSPNYLGDIERGKKLPSMATFIRLVNELDISADEL
Second: HMENLSGNDIKYLRKKYNLTQKELADALGLQKFGDRTIRRWEAEETHPSKLEQSSIQSFFNSLK
The “soluble fraction (log2)” value of the first is lower: -0.293 for the first, 0.0091 for the second.

“HMDGLTEQQADDILAFISIKGTNAEVLAALENYAGRNETFDTGLSELKVVASNLAAFGMPEENFVVDL” and “HMSKTQYTFKEVGSQFQLFAPSTKHTIMISADHPKYGWLTNQDQGRVINVYDTGKMTSSQDYYGLYKEVT” are within 0.2 log units of each other in “soluble fraction (log2)” value: 0.0102 for the first, -0.155 for the second.

Going from “HMKKAENEKLNIPYDVTEFLASSIKDDIRMMEGAMVKLLALSSLTKQDITQSLAKRVIQDVLGSSA” to “HMLMDVRVPDIIGVEINQAKEILTASSLLIGKITYVSLPEIEKDLVIETSVLAGRRVSAGTVIDITVNKE”, the “soluble fraction (log2)” value falls from -0.097 to -0.76.

Compared with “HMAQSLAQKINNYILTNRSSIANVAKSIGYSRTTVSRYLAGKYDSDPTDLENKLAEFLAHETGE”, “HMESSYKGFILDIETRQFSPTLIQRRGIAINPSGIVETTTEFSFATQEKVLIEDLKLIIDELDLRADY” is lower in “soluble fraction (log2)” value: 0.076 for the first, -4.07 for the second.

“HMDIEHREMKLQKLVITADSPLVGKTLKESNVRQRYNFMVVGVEEGQKNLTMINPNRRFEVGDIVWVVGEE” and “HMTKKEFLDILTESLAGNVPASEIEENIRYYKDYIENGEESEEKALEQLGDPHLIARTIIDSFIA” are within 0.2 log units of each other in “soluble fraction (log2)” value: -0.0892 for the first, -0.127 for the second.

First: HMLDEKFLSELMLALLRNHRRGLRAEVLLHKVRSNMELDGYKSLLVGVGRMEMWELAREIIDFVKAEG
Second: HMDDTPLNNVIKKIAALPENITLADKSAVLSAWEAYQALSVNLKAQVSNSELLIKAYETILQLEGEDQIK
The “soluble fraction (log2)” value of the first is lower: -4.4 for the first, 0.235 for the second.

“HMGGYVVVGDKDGFWSVVSTPVSKAKAEELLKDTTFPKGEKGKIVSVAEAMSHKKVIGKEYLESGGT” and “HMQEKIREVANRIRELRESLEVSPEEMADHLKVTIGTYIEYERGEADIPASVLFGIAHRLNVDMAVLL” are within 0.2 log units of each other in “soluble fraction (log2)” value: 0.117 for the first, 0.142 for the second.

Going from “HMSDLPLLEHARQNLSDDEFRILELTTIYGYRRVEVAKMLGEPISTINWKYNKLIKKVKTFYGEVYN” to “HMEGTAAAVALKGLMEQSGVDLREVMAAVESRGYYPKGTPFENYDPAFVSGVLVGAWDQVYKMILDQRPIP”, the “soluble fraction (log2)” value rises from -1.02 to -0.217.

Going from “HMIDQSVVVQYLSKLTNTPYLKTREITMGEPYMQFERGEIKFQEYVEDIRALLPGGDRIDADRLRDIWMNS” to “HMNQIDDADRKRVVDEVAGQFSSMSLTEMRSDREKLLSRIIPQVQTTLNRLGLQTIDVEGIAREVIARVG”, the “soluble fraction (log2)” value rises from -1.22 to 0.159.

For “HMDFSYTVGDIDEPIDSRGNSVIMLRKLAWGSNAEKLEIRRWIIDIDSERANKGVTFLTEEGPHNLVRV”, the “soluble fraction (log2)” value was 0.128.
